# Changes are numbered by the printed parent chain.
# B1: 69307 Fab (Fab, V domains shown)
# VH: EVQLVESGGGLVQPGGSLRLSCTASGFTFSNYWMTWVRQAPGKGLEWVANIKEDGSEKEYVDSVKGRFTISRDNAKNSLYLQMNSLRGEDTAVYYCARDGEQLVDYYYYYVMDVWGQGTTVTVSS
# VL: DIQMTQSPSSVSASVGDRVTITCRASQGISSWLAWYQQKPGKAPKLLIYAASSLQSGVPSRFSGSGSGTDFTLTISSLQPEDFATYYCQKADSLPYAFGQGTKLEIKR
# notes: CHO supernatant
# B2: 69329 Fab (Fab, V domains shown)
# VH: B1 VH with T23A, E59D
# VL: B1 VL with D92N, L94F, A97T
# notes: CHO supernatant
# B3: 12835B Fab (Fab, V domains shown)
# VH: EVQLVESGGGLIQPGGSLRLSCEASGFTFRNYEMNWVRQAPGKGLEWVSYISSSGNMKDYAESVKGRFTISRDNVKNSLQLQMNSLRVEDTAVYYCARDEFPYGMDVWGQGTTVTVSS
# VL: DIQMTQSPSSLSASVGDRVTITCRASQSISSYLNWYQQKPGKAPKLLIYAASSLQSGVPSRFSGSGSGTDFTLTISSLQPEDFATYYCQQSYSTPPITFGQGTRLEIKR
# notes: CHO supernatant
# B4: 12847B Fab (Fab, V domains shown)
# VH: EVQLVESGGGLVQPGRSLRLSCAASGFTFDDYAMNWVRQAPGKGLEWVSGISWSSGSMDYADSVKGRFTISRDNAKNSLYLQMNSLRTEDTALYYCAKAREVGDYYGMDVWGQGTTVTVSS
# VL: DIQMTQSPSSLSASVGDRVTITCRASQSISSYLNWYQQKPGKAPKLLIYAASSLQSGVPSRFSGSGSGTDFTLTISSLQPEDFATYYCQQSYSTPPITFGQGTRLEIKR
# notes: CHO supernatant
# B5: 12844B Fab (Fab, V domains shown)
# VH: EVQLVESGGSVVRPGGSLRLSCEASGFTFDDYGMSWVRQDPGKGLEWVSGINWNGDRTNYADSVKGRFIISRDNAKNSVYLQMNSLRAEDSALYHCARDQGLGVAATLDYWGQGTLVTVSS
# VL: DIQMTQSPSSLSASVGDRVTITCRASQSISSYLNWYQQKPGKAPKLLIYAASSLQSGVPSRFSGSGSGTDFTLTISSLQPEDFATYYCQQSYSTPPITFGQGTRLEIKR
# notes: CHO supernatant
# B6: 31863B Fab (Fab, V domains shown)
# VH: EVQLVESGGGLVQPGGSLRLSCAASGFTFNSYAMTWVRQAPGKGLEWVSFIGGSTGNTYYAGSVKGRFTISSDNSKKTLYLQMNSLRAEDTAVYYCAKGGAARRMEYFQHWGQGTLVTVSS
# VL: DIQMTQSPSSLSASIGDRVTITCRASQGISNYLAWYQQKPGKVPKLLIYAASTLQSGVPSRFSGSGSGTDFTLTISSLQPEDVATYYCQNHNSVPLTFGGGTKVEIKR
# notes: CHO supernatant
# B7: 69263 Fab (Fab, V domains shown)
# VH: EVQLVESGGGLVQPGRSLRLSCAVSGFTFDDYAMHWVRQAPGKGLEWVSGISWNSGTRGYADSVKGRFTISRDNAKNSLYLQMNSLRGEDTALYYCVKDITISPNYYGMDVWGQGTTVTVSS
# VL: B6 VL with I15V, G28D, N31H, L33S, V43L, K45N, T72S, I75T, N90K, H91Y
# notes: CHO supernatant
# B8: 31874B Fab (Fab, V domains shown)
# VH: EVQLVESGGGLVQPGGSLRLSCAASGFAFSSYAMTWVRQAPGKGLEWVSVISGTGGSTYYADSVKGRFTISRDNSKNTLYLQMNSLRAEDTAVYYCAKGGAARRMEYFQYWGQGTLVTVSS
# VL: B6 VL with I15V, K45N, N90K, H91Y, V94A
# notes: CHO supernatant
# B9: 69305 Fab (Fab, V domains shown)
# VH: QVQLVESGGGVVQPGRSLRLSCAASGFTFSSYGMHWVRQAPGKGLEWVAVIWYDGSNKYYADSVKGRFTISRDISKNTLYLQMNSLRAEDTAVYYCAGQLDLFFDYWGQGTLVTVSS
# VL: DIQMTQSPSSLSASVGDRVTITCRASQSIDRYLNWYRQKPGKAPKLLIYTTSSLQSGVPSRFSGSGSGTDFTLTLSSLQPEDFATYYCQQSYSPPLTFGGGTKVEIKR
# notes: CHO supernatant
# B10: 12848B Fab (Fab, V domains shown)
# VH: EVQLVESGGGLVQPGRSLTLSCAASGFTFDNFGMHWVRQGPGKGLEWVSGLTWNSGVIGYADSVKGRFTISRDNAKNSLYLQMNSLRPEDTALYYCAKDIRNYGPFDYWGQGTLVTVSS
# VL: not shown
# notes: CHO supernatant
# B11: 12839B Fab (Fab, V domains shown)
# VH: QVQLVESGGGVVQPGRSLRLSCAASGFPFSNYVMYWVRQAPGKGLEWVALIFFDGKKNYHADSVKGRFTITRDNSKNMLYLQMNSLRPEDAAVYYCAKIHCPNGVCYKGYYGMDVWGQGTTVTVSS
# VL: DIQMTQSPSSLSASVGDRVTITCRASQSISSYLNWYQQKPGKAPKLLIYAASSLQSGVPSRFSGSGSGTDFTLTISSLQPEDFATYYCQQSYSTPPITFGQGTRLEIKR
# notes: CHO supernatant
# B12: 31874B scFv (VH-VK) (scFv)
# chain: EVQLVESGGGLVQPGGSLRLSCAASGFAFSSYAMTWVRQAPGKGLEWVSVISGTGGSTYYADSVKGRFTISRDNSKNTLYLQMNSLRAEDTAVYYCAKGGAARRMEYFQYWGQGTLVTVSSDIQMTQSPSSLSASVGDRVTITCRASQGISNYLAWYQQKPGKVPNLLIYAASTLQSGVPSRFSGSGSGTDFTLTISSLQPEDVATYYCQKYNSAPLTFGGGTKVEIK
# B13: 31874B scFv (VK-VH) (scFv)
# scFv: DIQMTQSPSSLSASVGDRVTITCRASQGISNYLAWYQQKPGKVPNLLIYAASTLQSGVPSRFSGSGSGTDFTLTISSLQPEDVATYYCQKYNSAPLTFGGGTKVEIKGGGGSGGGGSGGGGSEVQLVESGGGLVQPGGSLRLSCAASGFAFSSYAMTWVRQAPGKGLEWVSVISGTGGSTYYADSVKGRFTISRDNSKNTLYLQMNSLRAEDTAVYYCAKGGAARRMEYFQYWGQGTLVTVSS
# notes: CHO supernatant; Vk-3xG4S-Vh
# B14: 31863B scFv (VH-VK) (scFv)
# chain: EVQLVESGGGLVQPGGSLRLSCAASGFTFNSYAMTWVRQAPGKGLEWVSFIGGSTGNTYYAGSVKGRFTISSDNSKKTLYLQMNSLRAEDTAVYYCAKGGAARRMEYFQHWGQGTLVTVSSDIQMTQSPSSLSASIGDRVTITCRASQGISNYLAWYQQKPGKVPKLLIYAASTLQSGVPSRFSGSGSGTDFTLTISSLQPEDVATYYCQNHNSVPLTFGGGTKVEIK
# B15: 12845B Fab (Fab, V domains shown)
# VH: EVQLVESGGGLVQPGGSLRLSCAASGFTVSNYEMNWVRQAPGKGLEWVSYISSSTSNIYYADSVKGRFTISRDNAENSLYLQMNSLRVEDTAVYYCVRDGIVVVPVGRGYYYYGLDVWGQGTTVTVSS
# VL: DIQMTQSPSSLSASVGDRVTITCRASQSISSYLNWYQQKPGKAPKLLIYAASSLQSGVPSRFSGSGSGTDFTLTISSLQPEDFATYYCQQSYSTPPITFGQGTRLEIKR
# notes: CHO supernatant
# B16: 31863B scFv (VK-VH) (scFv)
# scFv: DIQMTQSPSSLSASIGDRVTITCRASQGISNYLAWYQQKPGKVPKLLIYAASTLQSGVPSRFSGSGSGTDFTLTISSLQPEDVATYYCQNHNSVPLTFGGGTKVEIKGGGGSGGGGSGGGGSEVQLVESGGGLVQPGGSLRLSCAASGFTFNSYAMTWVRQAPGKGLEWVSFIGGSTGNTYYAGSVKGRFTISSDNSKKTLYLQMNSLRAEDTAVYYCAKGGAARRMEYFQHWGQGTLVTVSS
# notes: CHO supernatant; Vk-3xG4S-Vh
# B17: 12841B Fab (Fab, V domains shown)
# VH: EVQLVESGGGLVQPGGSLRLSCAASGFTFSNYWMNWVRQAPGKGLEWVANIKEDGGKKLYVDSVKGRFTISRDNAKNSLFLQMNSLRAEDTAVYYCAREDTTLVVDYYYYGMDVWGQGTTVTVSS
# VL: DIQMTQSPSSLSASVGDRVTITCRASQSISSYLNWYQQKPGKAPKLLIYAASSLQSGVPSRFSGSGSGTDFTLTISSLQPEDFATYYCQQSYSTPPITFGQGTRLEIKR
# notes: CHO supernatant; also called H1H12841B
# B18: 12843B Fab (Fab, V domains shown)
# VH: EVQLVESGGGLVQPGGSLRLSCAASGFTFNIFEMNWVRQAPGKGLEWISYISSRGTTTYYADSVRGRFTISRDNAKNSLYLQMNSLRAEDTAVYYCARDYEATIPFDFWGQGTLVTVSS
# VL: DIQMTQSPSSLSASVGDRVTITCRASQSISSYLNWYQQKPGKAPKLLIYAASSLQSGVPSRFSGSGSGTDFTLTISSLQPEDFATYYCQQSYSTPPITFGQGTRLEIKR
# notes: CHO supernatant
# B19: 69263 scFv (VH-VK) (scFv)
# chain: EVQLVESGGGLVQPGRSLRLSCAVSGFTFDDYAMHWVRQAPGKGLEWVSGISWNSGTRGYADSVKGRFTISRDNAKNSLYLQMNSLRGEDTALYYCVKDITISPNYYGMDVWGQGTTVTVSSDIQMTQSPSSLSASVGDRVTITCRASQDISHYSAWYQQKPGKLPNLLIYAASTLQSGVPSRFSGSGSGTDFSLTTSSLQPEDVATYYCQKYNSVPLTFGGGTKVEIK
# B20: 69261 Fab (Fab, V domains shown)
# VH: QVQLVESGGGLVKPGGSLRLSCAASGFTFSVYYMNWIRQAPGKGLEWVSYISSSGSTIYYADSVKGRFTISRDNAKNSLYLQMNSLRAEDTAVYYCGREGYSGTYSYYGMDVWGQGTTVTVSS
# VL: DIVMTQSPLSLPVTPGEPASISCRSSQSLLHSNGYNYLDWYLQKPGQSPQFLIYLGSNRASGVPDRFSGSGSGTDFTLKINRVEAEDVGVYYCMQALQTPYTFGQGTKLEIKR
# notes: CHO supernatant
# B21: 69305 scFv (VH-VK) (scFv)
# chain: QVQLVESGGGVVQPGRSLRLSCAASGFTFSSYGMHWVRQAPGKGLEWVAVIWYDGSNKYYADSVKGRFTISRDISKNTLYLQMNSLRAEDTAVYYCAGQLDLFFDYWGQGTLVTVSSDIQMTQSPSSLSASVGDRVTITCRASQSIDRYLNWYRQKPGKAPKLLIYTTSSLQSGVPSRFSGSGSGTDFTLTLSSLQPEDFATYYCQQSYSPPLTFGGGTKVEIK
# B22: 69305 scFv (VK-VH) (scFv)
# scFv: DIQMTQSPSSLSASVGDRVTITCRASQSIDRYLNWYRQKPGKAPKLLIYTTSSLQSGVPSRFSGSGSGTDFTLTLSSLQPEDFATYYCQQSYSPPLTFGGGTKVEIKGGGGSGGGGSGGGGSQVQLVESGGGVVQPGRSLRLSCAASGFTFSSYGMHWVRQAPGKGLEWVAVIWYDGSNKYYADSVKGRFTISRDISKNTLYLQMNSLRAEDTAVYYCAGQLDLFFDYWGQGTLVTVSS
# notes: CHO supernatant; Vk-3xG4S-Vh
# B23: 69263 scFv (VK-VH) (scFv)
# scFv: DIQMTQSPSSLSASVGDRVTITCRASQDISHYSAWYQQKPGKLPNLLIYAASTLQSGVPSRFSGSGSGTDFSLTTSSLQPEDVATYYCQKYNSVPLTFGGGTKVEIKGGGGSGGGGSGGGGSEVQLVESGGGLVQPGRSLRLSCAVSGFTFDDYAMHWVRQAPGKGLEWVSGISWNSGTRGYADSVKGRFTISRDNAKNSLYLQMNSLRGEDTALYYCVKDITISPNYYGMDVWGQGTTVTVSS
# notes: CHO supernatant; Vk-3xG4S-Vh
# Molecular target: T1, Hmm-hTFRC (REGN2431), monomeric human transferrin receptor ectodomain with N-terminal hexahistidine-myc-myc … (human, UniProt P02786 89-760)
# T1 construct: also called hmm.hTfR(C89-F763); His-myc-myc-hTFRC ecto
# T1 sequence (P02786 other isoform, or with tags, fused parts or gaps): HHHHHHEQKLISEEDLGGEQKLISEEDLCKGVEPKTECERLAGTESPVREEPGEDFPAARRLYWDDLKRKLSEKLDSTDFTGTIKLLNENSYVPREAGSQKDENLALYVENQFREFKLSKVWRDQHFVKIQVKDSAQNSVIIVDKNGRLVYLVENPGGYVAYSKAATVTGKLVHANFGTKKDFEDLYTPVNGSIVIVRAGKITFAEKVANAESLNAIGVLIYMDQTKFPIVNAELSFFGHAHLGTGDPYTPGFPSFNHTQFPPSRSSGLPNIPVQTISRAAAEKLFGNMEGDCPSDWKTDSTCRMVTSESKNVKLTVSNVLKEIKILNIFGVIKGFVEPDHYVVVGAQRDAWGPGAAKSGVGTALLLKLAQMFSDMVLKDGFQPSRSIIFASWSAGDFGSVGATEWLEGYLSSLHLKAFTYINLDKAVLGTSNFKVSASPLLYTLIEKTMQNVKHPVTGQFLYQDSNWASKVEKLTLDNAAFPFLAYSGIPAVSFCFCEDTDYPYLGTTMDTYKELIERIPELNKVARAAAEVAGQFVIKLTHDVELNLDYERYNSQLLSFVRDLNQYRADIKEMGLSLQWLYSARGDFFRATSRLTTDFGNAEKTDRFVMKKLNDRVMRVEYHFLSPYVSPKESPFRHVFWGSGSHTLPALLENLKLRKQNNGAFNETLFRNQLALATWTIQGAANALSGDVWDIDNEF
# Experiment: blocking ELISA, supernatant; Hmm-hTFRC binding to immobilized human holo-Tf
# Description: In the blocking assay, the anti-human Transferrin goat IgG polyclonal antibody (anti-hTf pAb) was passively absorbed at a concentration of 2 micrograms/mL in PBS on a 96-well microtiter plate overnight at 4° C. […] To the same plate, human holo-Tf was then added at a concentration of 1 micrograms/mL in PBS+0.5% BSA for 2 hours at room temperature. […] After a 1-hour incubation, the mixtures were transferred to the human holo-Tf microtiter plates. […] The plates were developed using TMB substrate solution according to the manufacturer's recommended procedure and absorbance at 450 nm was measured on a Victor™ Multilabel Plate Reader.
# The ability of the anti-TfR antibody to block human TFRC binding to human holo-Tf was evaluated using an ELISA-based blocking assay.
row,Binder,% Blocking
1,B1,12%
2,B2,8%
3,B3,78%
4,B4,3%
5,B5,20%
6,B6,24%
7,B7,14%
8,B8,16%
9,B9,3%
10,B10,13%
11,B11,13%
12,B12,14%
13,B13,-1%
14,B14,13%
15,B15,11%
16,B16,7%
17,B17,29%
18,B18,10%
19,B19,14%
20,B20,11%
21,B21,3%
22,B22,5%
23,B23,4%

# Source: patent US20250049896A1 (Regeneron, published 2025)
